In patent publication JP2012050437A (dated 2012):
Numbering of substitutions follows the chain as printed.

B1: humanized 12A11 antibody, version 6.1 (antibody, V domains shown)
VH: QVQLVESGGGVVQPGRSLRLSCAFSGFTLSTSGMSVGWIRQAPGKGLEWVAHIWWDDDKYYNPSLKSRFTISKDTSKNTVYLQMNSLRAEDTAVYYCARRTTTADYFAYWGQGTTVTVSS
VL: DVVMTQSPLSLPVTPGEPASISCRSSQSIVHSNGNTYLEWYLQKPGQSPQLLIYKVSNRFSGVPDRFSGSGSGTDFTLKISRVEAEDVGVYYCFQSSHVPLTFGQGTKLEIK
notes: Variable regions only; also called h12A11v6.1; バージョン6.1
B2: humanized 12A11 antibody, version 5.3 (antibody, V domains shown)
VH: B1 VH with V50L, F69L, V80L
VL: B1 VL
notes: Variable regions only; also called h12A11v5.3; バージョン5.3
B3: humanized 12A11 antibody, version 5.2 (antibody, V domains shown)
VH: B1 VH with V50L
VL: B1 VL
notes: Variable regions only; also called h12A11v5.2; バージョン5.2
B4: humanized 12A11 antibody, version 6.2 (antibody, V domains shown)
VH: B1 VH with F69L, V80L
VL: B1 VL
notes: Variable regions only; also called h12A11v6.2; バージョン6.2
B5: humanized 12A11 antibody, version 2.1 (antibody, V domains shown)
VH: B1 VH with T75N, V80L
VL: B1 VL
notes: Variable regions only; tested in conditioned medium of COS cells; also called h12A11v2.1; v2.1
B6: humanized 12A11 antibody, version 6.3 (antibody, V domains shown)
VH: B1 VH with V50L, V80L
VL: B1 VL
notes: Variable regions only; also called h12A11v6.3; バージョン6.3
B7: humanized 12A11 antibody, version 5.6 (antibody, V domains shown)
VH: B1 VH with T28S, V50L, V80L
VL: B1 VL
notes: Variable regions only; also called h12A11v5.6; バージョン5.6
B8: humanized 12A11 antibody, version 3 (antibody, V domains shown)
VH: B1 VH with K73R, T75N, V80L
VL: B1 VL
notes: Variable regions only; tested in conditioned medium of COS cells; also called h12A11v3; v3
B9: humanized 12A11 antibody, version 5.4 (antibody, V domains shown)
VH: B1 VH with T28S
VL: B1 VL
notes: Variable regions only; also called h12A11v5.4; バージョン5.4
B10: humanized 12A11 antibody, version 6.4 (antibody, V domains shown)
VH: B1 VH with T28S, V80L
VL: B1 VL
notes: Variable regions only; also called h12A11v6.4; バージョン6.4
B11: humanized 12A11 antibody, version 5.1 (antibody, V domains shown)
VH: B1 VH with F69L
VL: B1 VL
notes: Variable regions only; also called h12A11v5.1; バージョン5.1
B12: humanized 12A11 antibody, version 5.5 (antibody, V domains shown)
VH: B1 VH with T28S, F69L, V80L
VL: B1 VL
notes: Variable regions only; also called h12A11v5.5; バージョン5.5
B13: murine monoclonal antibody 12A11 (isotype IgG1) (antibody, V domains shown)
VH: QVTLKESGPGILKPSQTLSLTCSFSGFSLSTSGMSVGWIRQPSGKGLEWLAHIWWDDDKYYNPSLKSRLTISKDTSRNQVFLKITSVDTADTATYYCARRTTTADYFAYWGQGTTLTVSS
VL: DVLMTQTPLSLPVSLGDQASISCRSSQSIVHSNGNTYLEWYLQKPGQSPKLLIYKVSNRFSGVPDRFSGSGSGTDFTLKISRVEAEDLGIYYCFQSSHVPLTFGAGTKLELK
notes: Mouse IgG1 from the hybridoma; also called mAb 12A11; m12A11
B14: recombinant mouse 12A11 Cγ2a (isotype-switched 12A11) (antibody, V domains shown)
VH: B13 VH
VL: B13 VL
modifications: biotin conjugated (in the ELISA and the competition assay)
notes: also called m12A11Cγ2a; biotin-conjugated m12A11Cγ2a

How the values were obtained:
[1] = biological target: T1, aggregated synthetic Aβ1-42 (human, UniProt P05067 672-713); assay: quantitative Aβ(1-42) aggregate binding assay, COS conditioned medium
T1 construct: domain: Aβ1-42; Synthetic peptide, aggregated, coated for ELISA; also called 凝集Aβ1−42; Aβ(1-42) aggregate

[2] = biological target: T1, aggregated synthetic Aβ1-42; assay: ELISA on aggregated synthetic Aβ1-42
[3] = biological target: T1, aggregated synthetic Aβ1-42; assay: ELISA on aggregated Aβ1-42, streptavidin-HRP as reporter; confirmed (sentence runs on into paragraph 399)

Row | Binder | binding result [1] | also measured
1 | B1 | binds | –
2 | B2 | binds | –
3 | B3 | binds | –
4 | B4 | binds | –
5 | B5 | binds | –
6 | B6 | binds | –
7 | B7 | binds | –
8 | B8 | binds | –
9 | B9 | binds | –
10 | B10 | binds | –
11 | B11 | binds | –
12 | B12 | binds | –
13 | B13 | – | binding result [2]: binds
14 | B14 | – | binding result [3]: binds
